{
  "source": "paper PMC6197867",
  "about": "“Isolation and purification of recombinant immunoglobulin light chain variable domains from the periplasmic space of Escherichia coli” (PLoS ONE, 2018)",
  "proteins": {"B1": {"name": "LEN immunoglobulin light chain variable domain (kappa 4), recombinant (domain or fragment)", "VL": "not shown", "notes": "114 amino acid kappa 4 light chain variable domain of the Bence Jones protein LEN, from a patient with multiple myeloma; The C-terminal Lys-His8 of pOPINO was removed by a premature stop codon; removal of the ompA leader was confirmed by mass spectrometry, so the protein has no added residues; also called VL LEN; source: E. coli C41 (DE3), periplasmic expression, osmotic shock, purified …"}, "B2": {"name": "SMA immunoglobulin light chain variable domain (kappa 4), recombinant (domain or fragment)", "VL": "not shown", "notes": "114 amino acid kappa 4 light chain variable domain SMA, first extracted as amyloid fibrils from a patient with AL amyloidosis; The C-terminal Lys-His8 of pOPINO was removed by a premature stop codon; the ompA leader is cleaved; also called VL SMA; source: E. coli C41 (DE3), periplasmic expression, osmotic shock, purified (isoelectric precipitation, cation exchange, SEC); not shown: ompA leader …"}},
  "molecular_target": "the molecule itself",
  "assay": "SEC-MALS; 1.0 mg/mL protein on HiLoad 16/60 Superdex 75 in 10 mM Tris-HCl pH 7.5, 150 mM NaCl, 0.75 mL/min, 25 °C; monomer to dimer",
  "data": [
    {"protein": "B1", "values": [
      {"measurement": "stoichiometry N", "value": 2}
    ]},
    {"protein": "B2", "values": [
      {"measurement": "stoichiometry N", "value": 2}
    ]}
  ]
}
